From patent publication US8822420B2, “Peptides and aptamers thereof as specific modulators of mutant p53 function” (Universita Degli Studi di Trieste, priority 2008, dated 2014)
No end group written: not given here. Ahx = NCCCCCC(=O)O

Key:
[1] = biological target: T1, p53 R175H (Homo sapiens, UniProt P04637, R175H); test: Co-immunoprecipitation of EGFP-TNV-PAs with p53 R175H in H1299 cells; type: binding; details: H1299 cells co-transfected with p53 R175H and EGFP-TNV-PAs, IP anti-GFP
T1 construct: expression of full-length point mutants (hereinafter identified also as mut-p53 or mutant p53); expressed in transfected cells; host or cells: H1299 (p53-null)

[2] = biological target: T1, p53 R175H; test: EGR1-Luc luciferase assay in H1299 cells, p53 R175H; type: cell-based; details: peptide 1.6, 4, 20 μM
Description: (§1) (a) The effect of PAs on mutant p53 transactivating activity was analyzed in MG63 cells transiently transfected with Myc-Luc reporter along with constructs expressing p53 D281G or empty vector and with p[…] vectors expressing PAs or control vectors pLPC-EGFP (EGFP) or p[…] (TNV). The promoter activity measured in each experiment was normalized to the value measured in the absence of mutant p53. RLU: Relative Luciferase Units. […] Expression of mutant p53 and PAs was analyzed by Western Blot with the indicated antibodies. (b) The effect of FsA79 peptide on the transactivation of EGR1 promoter by mutant p53 was analyzed in H1299 cells, transfected with EGR1-Luc reporter along with plasmids encoding either p53R175H (left) or p53R273H (right) and treated with increasing amounts of FsA79 peptide (1.6, 4, 20 μM). […] (c) The effect of PAs on p53 wt transcriptional activity was analyzed in H1299 cells transfected with p21-Luc reporter, wt p53-expressing vector or empty vector along with constructs expressing the EGFP-TNV-PAs or control vectors as in (a). […] (d) The effect of PAs on the transcriptional activity of TAp73α was analyzed as in (c). […] (e) The effect of PAs on p53 wt transcriptional activity was analyzed in H1299 cells transfected with Bax-Luc reporter, wt-p53 expressing vector or empty vector together with constructs expressing EGFP-TNV-PAs or control vectors as in FIG. 3(c). […]

[3] = biological target: T2, p53 R273H (Homo sapiens, UniProt P04637, R273H); test: EGR1-Luc luciferase assay in H1299 cells, p53 R273H; type: cell-based; details: peptide 1.6, 4, 20 μM
T2 construct: expression of full-length point mutants (hereinafter identified also as mut-p53 or mutant p53); expressed in transfected cells; host or cells: H1299 (p53-null)
Description: as §1

[4] = tested on: Sk-Br-3 cells; test: AnnexinV-PE-Cyan5 staining by flow cytometry, Sk-Br-3 cells; type: cell-based; details: Sk-Br-3, GFP positive cells, 36 hours after transfection
Description: (§2) (a) The apoptotic effect of PAs was analyzed in U20S (expressing p53 wt), H1299 (p53 null), Sk-Br-3 (expressing p53R175H) and MDA-MB-468 (expressing p53R273H) cells. Cells were transfected either with constructs expressing EGFP-TNV-PAs or with pLPCcontrol vector, harvested after 36 hours and stained with propidium iodide before analyzing the DNA content of EGFP-positive cells by flow cytometry. Histograms represent the average and the s.d. of the percentage of cells with sub-G1 DNA content measured in three independent experiments. […] At least 10000 EGFP-positive cells were analyzed in each acquisition. Histograms represent the average and s.d. of three independent experiments. […] Expression of the overexpressed EGFP-TNV-PAs as well as endogenous cleaved PARP (p85), p53R175H and the proapoptotic protein Bax was analyzed by Western Blot with the indicated antibodies. (d) Analysis of AnnexinV-PE-Cyan5 binding of MDA-MB-468 cells treated and analyzed as described in FIG. 4(c). […] Aliquots of cell lysates untreated (NT) or treated with 50 μM Etoposide (Eto) were analyzed by Western Blot. […] After additional 20 hours cells were harvested and analyzed as in FIG. 4(a).
(§3) Sk-Br-3, MDA-MB-468, H1299 or U20S cells were seeded in 6 wells and transfected with pLPCEGFP-TNV16mers or pLPCEGFP-TNV or pLPC. […] Cells were analyzed by cytofluorimeter (FACScalibur) after additional 20 minutes.

[5] = tested on: MDA-MB-468 cells; test: AnnexinV-PE-Cyan5 staining by flow cytometry, MDA-MB-468 cells; type: cell-based; details: MDA-MB-468, GFP positive cells, 36 hours after transfection
Description: as §2, §3

[6] = tested on: Sk-Br-3 cells; test: PARP cleavage (p85) by Western Blot in Sk-Br-3 cells; type: cell-based
Description: (a) The apoptotic effect of PAs was analyzed in U20S (expressing p53 wt), H1299 (p53 null), Sk-Br-3 (expressing p53R175H) and MDA-MB-468 (expressing p53R273H) cells. Cells were transfected either with constructs expressing EGFP-TNV-PAs or with pLPCcontrol vector, harvested after 36 hours and stained with propidium iodide before analyzing the DNA content of EGFP-positive cells by flow cytometry. Histograms represent the average and the s.d. of the percentage of cells with sub-G1 DNA content measured in three independent experiments. […] At least 10000 EGFP-positive cells were analyzed in each acquisition. Histograms represent the average and s.d. of three independent experiments. […] Expression of the overexpressed EGFP-TNV-PAs as well as endogenous cleaved PARP (p85), p53R175H and the proapoptotic protein Bax was analyzed by Western Blot with the indicated antibodies. […] FACS analysis of DNA content was then performed as in (a). Aliquots of cell lysates untreated (NT) or treated with 50 μM Etoposide (Eto) were analyzed by Western Blot. […] Cells were transfected with EGFP-PAs and then left untreated or treated with 100 μM PRIMA-1. After additional 20 hours cells were harvested and analyzed as in FIG. 4(a). […]
To specifically evaluate the effect on cells expressing the aptamers, propidium-iodide staining was measured only in the GFP positive population.

[7] = tested on: Sk-Br-3 cells; test: FACS analysis of DNA content (propidium iodide) of EGFP-positive Sk-Br-3 cells; type: cell-based
Description: (a) The apoptotic effect of PAs was analyzed in U20S (expressing p53 wt), H1299 (p53 null), Sk-Br-3 (expressing p53R175H) and MDA-MB-468 (expressing p53R273H) cells. Cells were transfected either with constructs expressing EGFP-TNV-PAs or with pLPCcontrol vector, harvested after 36 hours and stained with propidium iodide before analyzing the DNA content of EGFP-positive cells by flow cytometry. Histograms represent the average and the s.d. of the percentage of cells with sub-G1 DNA content measured in three independent experiments. […] At least 10000 EGFP-positive cells were analyzed in each acquisition. Histograms represent the average and s.d. of three independent experiments. […] Expression of the overexpressed EGFP-TNV-PAs as well as endogenous cleaved PARP (p85), p53R175H and the proapoptotic protein Bax was analyzed by Western Blot with the indicated antibodies. (d) Analysis of AnnexinV-PE-Cyan5 binding of MDA-MB-468 cells treated and analyzed as described in FIG. 4(c). […] FACS analysis of DNA content was then performed as in (a). Aliquots of cell lysates untreated (NT) or treated with 50 μM Etoposide (Eto) were analyzed by Western Blot. […] Cells were transfected with EGFP-PAs and then left untreated or treated with 100 μM PRIMA-1. After additional 20 hours cells were harvested and analyzed as in FIG. 4(a).
Sk-Br-3, MDA-MB-468, H1299 or U20S cells were seeded in 6 wells and transfected with pLPCEGFP-TNV16mers or pLPCEGFP-TNV or pLPC. For cell cycle analysis, cells were collected by trypsinization, recovering also the supernatants, and resuspended in PBS/0.1% Nonidet P-40 (NP-40) containing 2 μg/ml RnaseA. 10 min later, 10 μg/ml propidium iodide was added. Cells were analyzed by cytofluorimeter (FACScalibur) after additional 20 minutes.

[8] = biological target: T3, wild-type p53 (Homo sapiens, UniProt P04637); test: Bax-Luc luciferase assay in H1299 cells, wild-type p53; type: cell-based
T3 construct: expressed in transfected cells; host or cells: H1299
Description: (§4) (a) The effect of PAs on mutant p53 transactivating activity was analyzed in MG63 cells transiently transfected with Myc-Luc reporter along with constructs expressing p53 D281G or empty vector and with pLPC-EGFP-TNV vectors expressing PAs or control vectors pLPC-EGFP (EGFP) or pLPC-EGFP-TNV (TNV). The promoter activity measured in each experiment was normalized to the value measured in the absence of mutant p53. RLU: Relative Luciferase Units. […] Expression of mutant p53 and PAs was analyzed by Western Blot with the indicated antibodies. (b) The effect of FsA79 peptide on the transactivation of EGR1 promoter by mutant p53 was analyzed in H1299 cells, transfected with EGR1-Luc reporter along with plasmids encoding either p53R175H (left) or p53R273H (right) and treated with increasing amounts of FsA79 peptide (1.6, 4, 20 μM). Luciferase assays were performed and represented as in (a). (c) The effect of PAs on p53 wt transcriptional activity was analyzed in H1299 cells transfected with p21-Luc reporter, wt p53-expressing vector or empty vector along with constructs expressing the EGFP-TNV-PAs or control vectors as in (a). Luciferase assays were performed and represented as in (a). (d) The effect of PAs on the transcriptional activity of TAp73α was analyzed as in (c). […] (f) Effect of PAs on TAp73a transcriptional activity on Bax-Luc reporter was analyzed as described in FIG. 3(d). […]

[9] = biological target: T4, TAp73α (Homo sapiens, UniProt O15350); test: Bax-Luc luciferase assay in H1299 cells, TAp73α; type: cell-based
T4 construct: expressed in transfected cells; host or cells: H1299
T4 sequence (O15350 1-636): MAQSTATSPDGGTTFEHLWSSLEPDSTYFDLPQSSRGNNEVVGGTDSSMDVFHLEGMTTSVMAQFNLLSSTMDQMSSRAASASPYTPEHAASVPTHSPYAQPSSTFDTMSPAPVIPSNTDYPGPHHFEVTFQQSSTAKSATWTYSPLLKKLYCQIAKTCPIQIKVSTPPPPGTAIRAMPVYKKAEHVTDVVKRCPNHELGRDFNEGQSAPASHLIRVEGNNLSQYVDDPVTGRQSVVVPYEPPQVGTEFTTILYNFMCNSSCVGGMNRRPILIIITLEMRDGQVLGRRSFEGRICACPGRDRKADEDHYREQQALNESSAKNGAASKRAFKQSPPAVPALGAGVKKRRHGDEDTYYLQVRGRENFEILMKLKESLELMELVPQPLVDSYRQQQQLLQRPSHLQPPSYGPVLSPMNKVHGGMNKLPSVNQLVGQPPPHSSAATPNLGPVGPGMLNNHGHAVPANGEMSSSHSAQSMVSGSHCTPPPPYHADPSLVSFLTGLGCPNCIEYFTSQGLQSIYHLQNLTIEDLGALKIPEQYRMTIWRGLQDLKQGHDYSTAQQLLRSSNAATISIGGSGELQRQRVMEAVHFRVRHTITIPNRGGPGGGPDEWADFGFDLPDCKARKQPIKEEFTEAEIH
Description: as §4

[10] = biological target: T5, p53 D281G (Homo sapiens, UniProt P04637, D281G); test: c-Myc-Luc luciferase assay in MG63 cells; type: cell-based; details: EGFP-TNV-PAs, 36 hours
T5 construct: expression of full-length point mutants (hereinafter identified also as mut-p53 or mutant p53); expressed in transfected cells; host or cells: MG63 (p53-null)
Description: as §1

AKYCQCAAKVRVTAAM [A3]
binding to p53 R175H by co-immunoprecipitation [1]: showed a stronger interaction with p53 R175H

FAM-Ahx-peptide sA79 ({FAM-Ahx}-DVADWESCGEYWCYRV; cysteine pairing not given here) [FsA79, fluoresceinated version of sA79 peptide]
effect on transactivation of EGR1-Luc reporter by p53 R175H [2]: inhibits the transactivation activity of both mutants | effect on transactivation of EGR1-Luc reporter by p53 R273H [3]: inhibits the transactivation activity of both mutants

GPVVPRTQYMSLAFGW [A29]
AnnexinV positive cells [4]: approximately 30% | AnnexinV positive cells [5]: approximately 30% | binding to p53 R175H by co-immunoprecipitation [1]: showed a stronger interaction with p53 R175H | cleaved p85 fragment of PARP-1 [6]: evident increase | apoptotic response (sub-G1) compared with Etoposide treatment alone ([7]; Sk-Br-3): comparable to that observed upon drug treatment alone | sub-G1 peak compared with PRIMA-1 ([7]; Sk-Br-3, PRIMA-1 100 μM for 20 hours): comparable to that induced by PRIMA-1

IQITLTGWSARVTTSG [A60, 16mer peptide aptamer in thioredoxin scaffold; free peptide not synthetized]
effect on transactivation activity of wild-type p53 on Bax-Luc reporter [8]: all aptamers, but A60, do not significantly affect | binding to p53 R175H by co-immunoprecipitation [1]: showed a stronger interaction with p53 R175H | effect on transactivation activity of p73 on Bax-Luc reporter [9]: all aptamers, but A60, do not significantly affect

QRGLYCSCVTNQNAEV [B6, reference compound]
AnnexinV positive cells [4]: less than 15% | AnnexinV positive cells [5]: less than 15% | effect on transactivation activity of mutant p53 on c-Myc-Luc reporter [10]: did not showed any effect | sub-G1 peak (apoptotic cell death) ([7]; Sk-Br-3 (p53 R175H), GFP positive population, 36 hours after transfection): unable to induce apoptosis

VWAESCDDCGEYWRYV [A79]
binding to p53 R175H by co-immunoprecipitation [1]: showed a stronger interaction with p53 R175H
